Measured values: patent US20250313644A1

How the values were obtained:
[1] = molecular target: human TL1A (HuTL1A) (human) (UniProt O95150)
[2] = molecular target: human TL1A (HuTL1A) (human) (UniProt O95150); remark: listed apart in the source
[3] = molecular target: FASL (UniProt P48023); assay: ELISA, coated FASL, Ab 25 nM
[4] = molecular target: T1, LT-α (UniProt P01374); assay: ELISA, coated LT-α, Ab 25 nM
T1 sequence (looked up): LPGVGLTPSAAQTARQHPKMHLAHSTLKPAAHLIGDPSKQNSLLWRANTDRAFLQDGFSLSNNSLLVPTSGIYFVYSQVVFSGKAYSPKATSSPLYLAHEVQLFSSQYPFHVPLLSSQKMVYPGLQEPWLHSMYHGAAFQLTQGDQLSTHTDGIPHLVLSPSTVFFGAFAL

[5] = molecular target: FASL (UniProt P48023); assay: ELISA, coated FASL, Ab 100 nM
[6] = molecular target: LIGHT (UniProt O43557); assay: ELISA, coated LIGHT, Ab 25 nM
Sequence of LIGHT (O43557 74-240 limits assumed): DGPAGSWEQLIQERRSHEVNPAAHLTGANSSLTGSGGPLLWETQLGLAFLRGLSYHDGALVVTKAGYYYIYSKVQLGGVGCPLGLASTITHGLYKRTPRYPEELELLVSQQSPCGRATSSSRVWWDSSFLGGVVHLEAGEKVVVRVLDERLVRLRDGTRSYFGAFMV

[7] = molecular target: T1, LT-α; assay: ELISA, coated LT-α, Ab 100 nM
[8] = molecular target: TNFα (UniProt P01375); assay: ELISA, coated TNF-α, Ab 25 nM
Sequence of TNFα (P01375 77-233 limits assumed): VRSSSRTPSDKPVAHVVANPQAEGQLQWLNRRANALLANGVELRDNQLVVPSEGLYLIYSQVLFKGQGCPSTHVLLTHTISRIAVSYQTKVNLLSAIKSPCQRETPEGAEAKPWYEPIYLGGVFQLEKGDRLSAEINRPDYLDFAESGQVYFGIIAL

[9] = molecular target: FASL (UniProt P48023); assay: ELISA, coated FASL, Ab 6.25 nM
[10] = molecular target: LIGHT (UniProt O43557); assay: ELISA, coated LIGHT, Ab 100 nM
[11] = molecular target: T1, LT-α; assay: ELISA, coated LT-α, Ab 6.25 nM
[12] = molecular target: TNFα (UniProt P01375); assay: ELISA, coated TNF-α, Ab 100 nM
[13] = molecular target: FASL (UniProt P48023); assay: ELISA, coated FASL, Ab 0.391 nM
[14] = molecular target: FASL (UniProt P48023); assay: ELISA, coated FASL, Ab 1.563 nM
[15] = molecular target: LIGHT (UniProt O43557); assay: ELISA, coated LIGHT, Ab 6.25 nM
[16] = molecular target: T1, LT-α; assay: ELISA, coated LT-α, Ab 0.391 nM
[17] = molecular target: T1, LT-α; assay: ELISA, coated LT-α, Ab 1.563 nM
[18] = molecular target: TNFα (UniProt P01375); assay: ELISA, coated TNF-α, Ab 6.25 nM
[19] = molecular target: LIGHT (UniProt O43557); assay: ELISA, coated LIGHT, Ab 0.391 nM
[20] = molecular target: LIGHT (UniProt O43557); assay: ELISA, coated LIGHT, Ab 1.563 nM
[21] = molecular target: TNFα (UniProt P01375); assay: ELISA, coated TNF-α, Ab 0.391 nM
[22] = molecular target: TNFα (UniProt P01375); assay: ELISA, coated TNF-α, Ab 1.563 nM
[23] = molecular target: FASL (UniProt P48023); assay: ELISA, coated FASL, Ab 0.000 nM (blank)
[24] = molecular target: T1, LT-α; assay: ELISA, coated LT-α, Ab 0.000 nM (blank)
[25] = molecular target: LIGHT (UniProt O43557); assay: ELISA, coated LIGHT, Ab 0.000 nM (blank)
[26] = molecular target: TNFα (UniProt P01375); assay: ELISA, coated TNF-α, Ab 0.000 nM (blank)
[27] = molecular target: human TL1A (HuTL1A) (human) (UniProt O95150); assay: DLS, antigen and antibody mixed in equal moles
[28] = molecular target: human TL1A (HuTL1A) (human) (UniProt O95150); assay: ELISA: biotin-HuTL1A on streptavidin plate, antibody diluted at pH 5.8, HRP-anti-human Fc, OD450
[29] = molecular target: human TL1A (HuTL1A) (human) (UniProt O95150); assay: ELISA: biotin-HuTL1A on streptavidin plate, antibody diluted at pH 7.4, HRP-anti-human Fc, OD450
[30] = molecular target: human TL1A (HuTL1A) (human) (UniProt O95150); assay: competition ELISA: antibody dilution mixed 1:1 with Biotin-TL1A, added to coated DcR3 (1 µg/mL), Streptavidin-HRP, OD450; blocked partner of TL1A: DcR3

Sequence of human TL1A (HuTL1A) (human) (O95150 57-251 limits assumed): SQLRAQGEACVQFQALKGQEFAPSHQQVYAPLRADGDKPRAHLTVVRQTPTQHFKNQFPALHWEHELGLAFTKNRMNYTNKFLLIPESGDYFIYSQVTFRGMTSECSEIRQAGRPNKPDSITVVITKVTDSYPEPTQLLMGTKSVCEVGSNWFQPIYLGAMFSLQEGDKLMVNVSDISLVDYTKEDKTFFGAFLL
Sequence of FASL (P48023 134-281 limits assumed): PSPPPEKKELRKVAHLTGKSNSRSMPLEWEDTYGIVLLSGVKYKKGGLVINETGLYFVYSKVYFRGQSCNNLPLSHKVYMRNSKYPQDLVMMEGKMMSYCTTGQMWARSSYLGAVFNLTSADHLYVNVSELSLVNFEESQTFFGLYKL
Sequence of BM1 antibody (Pfizer/Roivant TL1A monoclonal antibody RVT-3101) (VH): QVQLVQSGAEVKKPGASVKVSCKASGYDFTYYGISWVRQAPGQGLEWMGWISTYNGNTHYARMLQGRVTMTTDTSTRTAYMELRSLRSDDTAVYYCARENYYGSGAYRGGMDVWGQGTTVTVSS
Sequence of BM1 antibody (Pfizer/Roivant TL1A monoclonal antibody RVT-3101) (VL): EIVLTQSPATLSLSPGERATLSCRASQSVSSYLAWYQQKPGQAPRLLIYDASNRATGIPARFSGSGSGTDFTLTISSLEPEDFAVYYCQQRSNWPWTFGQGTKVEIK

- IC50 (read off the curve); SEAP reporter in HEK293T/DR3-NFκB cells with soluble TL1A, OD655 [1]: 2 nM
- IC50 (read off the curve); IFN-γ of human T cells with IL-12, IL-18 and exogenous human TL1A [2]: 0.5 nM
- OD450 nm [3]: 0.0609
- OD450 nm [4]: 0.0845
- OD450 nm [5]: 0.0855
- OD450 nm [6]: 0.0916
- OD450 nm [7]: 0.0823
- OD450 nm [8]: 0.0601
- OD450 nm [9]: 0.0513
- OD450 nm [10]: 0.0996
- OD450 nm [11]: 0.0909
- OD450 nm [12]: 0.0815
- OD450 nm [13]: 0.051
- OD450 nm [14]: 0.0518
- OD450 nm [15]: 0.0903
- OD450 nm [16]: 0.0978
- OD450 nm [17]: 0.095
- OD450 nm [18]: 0.0511
- OD450 nm [19]: 0.0834
- OD450 nm [20]: 0.0887
- OD450 nm [21]: 0.0539
- OD450 nm [22]: 0.0523
- OD450 nm [23]: 0.0544
- OD450 nm [24]: 0.0972
- OD450 nm [25]: 0.0644
- OD450 nm [26]: 0.0666
- Ave Z-dia (nm) of the antigen-antibody complex [27]: 85.7 nm
- EC50 (read off the curve) [28]: 0.1 nM
- EC50 (read off the curve) [29]: 0.1 nM
- IC50 (read off the curve) [30]: 0.2 µg/mL
Substance: BM1 antibody (Pfizer/Roivant TL1A monoclonal antibody RVT-3101)
